Laboratory results: patent publication US20200087392A1 (Novartis, published 2020)

Biological target: T1, human β-klotho (human, UniProt Q86Z14 52-997, limits assumed)
T1 construct: Antigen of the SET assay; also called beta-klotho
T1 sequence: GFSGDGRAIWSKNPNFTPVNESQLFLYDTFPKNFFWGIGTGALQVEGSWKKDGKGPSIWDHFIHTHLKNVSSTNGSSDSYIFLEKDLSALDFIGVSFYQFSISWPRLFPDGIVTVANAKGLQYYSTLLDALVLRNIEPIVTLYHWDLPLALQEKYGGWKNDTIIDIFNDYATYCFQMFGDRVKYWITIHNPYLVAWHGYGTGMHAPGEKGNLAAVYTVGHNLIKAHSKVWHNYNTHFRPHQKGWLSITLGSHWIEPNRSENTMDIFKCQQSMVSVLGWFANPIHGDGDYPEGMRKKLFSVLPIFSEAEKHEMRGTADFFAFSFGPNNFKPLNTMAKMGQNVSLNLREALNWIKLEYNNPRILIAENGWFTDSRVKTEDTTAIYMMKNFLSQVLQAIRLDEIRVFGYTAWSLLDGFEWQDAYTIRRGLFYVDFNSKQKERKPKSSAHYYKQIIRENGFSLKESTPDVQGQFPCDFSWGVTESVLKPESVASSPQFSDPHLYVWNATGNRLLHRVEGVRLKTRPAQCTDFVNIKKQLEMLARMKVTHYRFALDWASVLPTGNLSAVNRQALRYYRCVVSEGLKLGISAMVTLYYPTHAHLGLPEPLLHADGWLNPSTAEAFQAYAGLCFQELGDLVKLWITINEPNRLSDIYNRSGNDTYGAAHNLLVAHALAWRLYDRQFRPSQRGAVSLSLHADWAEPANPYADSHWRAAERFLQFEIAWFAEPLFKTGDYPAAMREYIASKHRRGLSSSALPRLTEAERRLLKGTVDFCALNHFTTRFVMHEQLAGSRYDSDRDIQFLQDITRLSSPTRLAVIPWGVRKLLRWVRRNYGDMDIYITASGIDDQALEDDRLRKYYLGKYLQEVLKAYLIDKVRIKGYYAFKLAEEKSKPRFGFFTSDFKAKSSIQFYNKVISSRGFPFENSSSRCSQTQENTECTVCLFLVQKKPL
Assay: solution equilibrium titration (SET)

Kd: ~0.042 nM
B1: NOV001 (antibody, human IgG1, kappa, L234A L235A, V domains shown)
VH: QVQLVQSGAEVKKPGSSVKVSCKASGYTFTDYYINWVRQAPGQGLEWMGRIHPGSGNTYYNEKFQGRVTLTADKSTSTAYMELSSLRSEDTAVYYCAILLLRSYGMDDWGQGTTVTVSS
VL: DVVMTQTPLSLSVTPGQPASISCKSSQSIVHSSGNTYLEWYLQKPGQSPQLLIYKVSNRFSGVPDRFSGSGSGTDFTLKISRVEAEDVGVYYCFQGSHIPYTFGQGTKLEIKR
notes: also called IgG1 LALA version of NOV003
